In patent US20180155427A1 (Novartis, published 2018):

Tests used:
[1] = target: T1, human PD-1 expressed on cells (human, UniProt Q15116 25-288); assay: rank among the 16 humanized clones in competition with Alexa 488-labeled murine mAb BAP049 on PD-1-expressing 300.19 cells, first experiment
T1 construct: whole, on cells; Treated as one molecule; also called PD-1 expressing Jurkat cells; human PD-1 transfected Jurkat cells
Procedure: (§1) Incubations with the mAb mixtures having different concentration ratios of test mAb to labeled mAb was at 4° C. for 30 min. Bound labeled murine mAb was then quantified using a FACS machine. The experiment was performed twice.

[2] = target: T1, human PD-1 expressed on cells; assay: rank among the 16 humanized clones by FACS binding data on PD-1-expressing cells
[3] = target: T1, human PD-1 expressed on cells; assay: rank among the 16 humanized clones in competition with Alexa 488-labeled murine mAb BAP049 on PD-1-expressing 300.19 cells, second experiment
Procedure: as §1

T1 sequence (Q15116 25-288): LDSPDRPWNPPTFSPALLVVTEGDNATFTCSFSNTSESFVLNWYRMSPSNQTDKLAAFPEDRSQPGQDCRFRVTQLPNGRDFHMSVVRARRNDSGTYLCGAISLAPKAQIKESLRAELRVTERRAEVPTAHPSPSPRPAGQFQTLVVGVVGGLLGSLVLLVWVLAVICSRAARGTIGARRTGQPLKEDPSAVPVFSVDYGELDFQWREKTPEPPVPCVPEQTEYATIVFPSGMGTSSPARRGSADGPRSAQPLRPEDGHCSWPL

| Competition Binding 1st exp. (rank) [1] | Ranking FACS data [2] | Competition Binding 2nd exp. (rank) [3] | Binder |
| --- | --- | --- | --- |
| 1 | 6 | 1 | humanized mAb BAP049-hum13 (antibody, human IgG4 S228P, kappa, Human IgG4(S228P), human kappa; tested as concentrated supernatant of transiently transfected CHO cells) heavy: not shown light: DVVMTQSPLSLPVTLGQPASISCKSSQSLLDSGNQKNFLTWYQQKPGKAPKLLIYWASTRESGVPSRFSGSGSGTDFTFTISSLEAEDAATYYCQNDYSYPYTFGQGTKVEIKRTVAAPSVFIFPPSDEQLKSGTASVVCLLNNFYPREAKVQWKVDNALQSGNSQESVTEQDSKDSTYSLSSTLTLSKADYEKHKVYACEVTHQGLSSPVTKSFNRGEC |
| 7 | 6 | 15 | humanized mAb BAP049-hum15 (antibody, human IgG4 S228P, kappa, Human IgG4(S228P), human kappa; tested as concentrated supernatant of transiently transfected CHO cells) heavy: not shown light: EIVLTQSPDFQSVTPKEKVTITCKSSQSLLDSGNQKNFLTWYQQKPGQAPRLLIYWASTRESGVPSRFSGSGSGTDFTFTISSLEAEDAATYYCQNDYSYPYTFGQGTKVEIKRTVAAPSVFIFPPSDEQLKSGTASVVCLLNNFYPREAKVQWKVDNALQSGNSQESVTEQDSKDSTYSLSSTLTLSKADYEKHKVYACEVTHQGLSSPVTKSFNRGEC |
| 4 | 6 | > 4 | humanized mAb BAP049-hum11 (antibody, human IgG4 S228P, kappa, Human IgG4(S228P), human kappa; tested as concentrated supernatant of transiently transfected CHO cells; also called Clone No. 11) heavy: not shown light: EIVLTQSPATLSLSPGERATLSCKSSQSLLDSGNQKNFLTWYQQKPGQAPRLLIYWASTRESGVPSRFSGSGSGTDFTFTISSLEAEDAATYYCQNDYSYPYTFGQGTKVEIKRTVAAPSVFIFPPSDEQLKSGTASVVCLLNNFYPREAKVQWKVDNALQSGNSQESVTEQDSKDSTYSLSSTLTLSKADYEKHKVYACEVTHQGLSSPVTKSFNRGEC |
| 7 | 1 | 3 | humanized mAb BAP049-hum06 (antibody, human IgG4 S228P, kappa, Human IgG4(S228P), human kappa; tested as concentrated supernatant of transiently transfected CHO cells) heavy: not shown light: DIVMTQTPLSLPVTPGEPASISCKSSQSLLDSGNQKNFLTWYQQKPGQAPRLLIYWASTRESGVPSRFSGSGSGTDFTFTISSLEAEDAATYYCQNDYSYPYTFGQGTKVEIKRTVAAPSVFIFPPSDEQLKSGTASVVCLLNNFYPREAKVQWKVDNALQSGNSQESVTEQDSKDSTYSLSSTLTLSKADYEKHKVYACEVTHQGLSSPVTKSFNRGEC |
| 7 | 4 | > 4 | humanized mAb BAP049-hum07 (antibody, human IgG4 S228P, kappa, Human IgG4(S228P), human kappa; tested as concentrated supernatant of transiently transfected CHO cells) heavy: not shown light: EIVLTQSPATLSLSPGERATLSCKSSQSLLDSGNQKNFLTWYQQKPGKAPKLLIYWASTRESGVPSRFSGSGSGTDFTFTISSLEAEDAATYYCQNDYSYPYTFGQGTKVEIKRTVAAPSVFIFPPSDEQLKSGTASVVCLLNNFYPREAKVQWKVDNALQSGNSQESVTEQDSKDSTYSLSSTLTLSKADYEKHKVYACEVTHQGLSSPVTKSFNRGEC |
| 2 | 7 | 4 | humanized mAb BAP049-hum09 (antibody, human IgG4 S228P, kappa, Human IgG4(S228P), human kappa; tested as concentrated supernatant of transiently transfected CHO cells; also called Clone No. 09) heavy: not shown light: EIVLTQSPDFQSVTPKEKVTITCKSSQSLLDSGNQKNFLTWYQQKPGQAPRLLIYWASTRESGVPSRFSGSGSGTDFTFTISSLEAEDAATYYCQNDYSYPYTFGQGTKVEIKRTVAAPSVFIFPPSDEQLKSGTASVVCLLNNFYPREAKVQWKVDNALQSGNSQESVTEQDSKDSTYSLSSTLTLSKADYEKHKVYACEVTHQGLSSPVTKSFNRGEC |
| 3 | 6 | 2 | humanized mAb BAP049-hum02 (antibody, human IgG4 S228P, kappa, V domains shown, Human IgG4(S228P), human kappa; tested as concentrated supernatant of transiently transfected CHO cells) VH: EVQLVQSGAEVKKPGESLRISCKGSGYTFTTYWMHWVRQATGQGLEWMGNIYPGTGGSNFDEKFKNRVTITADKSTSTAYMELSSLRSEDTAVYYCTRWTTGTGAYWGQGTTVTVSS VL: DIQMTQSPSSLSASVGDRVTITCKSSQSLLDSGNQKNFLTWYQQKPGQAPRLLIYWASTRESGIPPRFSGSGYGTDFTLTINNIESEDAAYYFCQNDYSYPYTFGQGTKVEIKR |
| 8 | 3 | 16 | humanized mAb BAP049-hum12 (antibody, human IgG4 S228P, kappa, V domains shown, Human IgG4(S228P), human kappa; tested as concentrated supernatant of transiently transfected CHO cells) VH: EVQLVQSGAEVKKPGESLRISCKGSGYTFTTYWMHWVRQATGQGLEWMGNIYPGTGGSNFDEKFKNRVTITADKSTSTAYMELSSLRSEDTAVYYCTRWTTGTGAYWGQGTTVTVSS VL: DIQMTQSPSSLSASVGDRVTITCKSSQSLLDSGNQKNFLTWYLQKPGQSPQLLIYWASTRESGVPSRFSGSGSGTDFTFTISSLEAEDAATYYCQNDYSYPYTFGQGTKVEIKR |
| 16 | 15 | 15 | humanized mAb BAP049-hum16 (antibody, human IgG4 S228P, kappa, V domains shown, Human IgG4(S228P), human kappa; tested as concentrated supernatant of transiently transfected CHO cells) VH: EVQLVQSGAEVKKPGESLRISCKGSGYTFTTYWMHWVRQAPGQGLEWMGNIYPGTGGSNFDEKFKNRFTISRDNSKNTLYLQMNSLRAEDTAVYYCTRWTTGTGAYWGQGTTVTVSS VL: EIVLTQSPDFQSVTPKEKVTITCKSSQSLLDSGNQKNFLTWYQQKPGQAPRLLIYWASTRESGVPSRFSGSGSGTDFTFTISSLEAEDAATYYCQNDYSYPYTFGQGTKVEIKR |
| 8 | 7 | 14 | humanized mAb BAP049-hum03 (antibody, human IgG4 S228P, kappa, V domains shown, Human IgG4(S228P), human kappa; tested as concentrated supernatant of transiently transfected CHO cells) VH: EVQLVQSGAEVKKPGESLRISCKGSGYTFTTYWMHWIRQSPSRGLEWLGNIYPGTGGSNFDEKFKNRFTISRDNSKNTLYLQMNSLRAEDTAVYYCTRWTTGTGAYWGQGTTVTVSS VL: DIQMTQSPSSLSASVGDRVTITCKSSQSLLDSGNQKNFLTWYQQKPGQAPRLLIYWASTRESGIPPRFSGSGYGTDFTLTINNIESEDAAYYFCQNDYSYPYTFGQGTKVEIKR |
| 7 | 7 | 4 | humanized mAb BAP049-hum08 (antibody, human IgG4 S228P, kappa, Human IgG4(S228P), human kappa; tested as concentrated supernatant of transiently transfected CHO cells; also called Clone No. 08) heavy: not shown light: EIVLTQSPDFQSVTPKEKVTITCKSSQSLLDSGNQKNFLTWYQQKPGQAPRLLIYWASTRESGVPSRFSGSGSGTDFTFTISSLEAEDAATYYCQNDYSYPYTFGQGTKVEIKRTVAAPSVFIFPPSDEQLKSGTASVVCLLNNFYPREAKVQWKVDNALQSGNSQESVTEQDSKDSTYSLSSTLTLSKADYEKHKVYACEVTHQGLSSPVTKSFNRGEC |
| 7 | 16 | 15 | humanized mAb BAP049-hum14 (antibody, human IgG4 S228P, kappa, Human IgG4(S228P), human kappa; tested as concentrated supernatant of transiently transfected CHO cells) heavy: not shown light: EIVLTQSPATLSLSPGERATLSCKSSQSLLDSGNQKNFLTWYQQKPGQAPRLLIYWASTRESGVPSRFSGSGSGTDFTFTISSLEAEDAATYYCQNDYSYPYTFGQGTKVEIKRTVAAPSVFIFPPSDEQLKSGTASVVCLLNNFYPREAKVQWKVDNALQSGNSQESVTEQDSKDSTYSLSSTLTLSKADYEKHKVYACEVTHQGLSSPVTKSFNRGEC |
| 15 | 14 | 15 | humanized mAb BAP049-hum04 (antibody, human IgG4 S228P, kappa, V domains shown, Human IgG4(S228P), human kappa; tested as concentrated supernatant of transiently transfected CHO cells) VH: EVQLVQSGAEVKKPGESLRISCKGSGYTFTTYWMHWIRQSPSRGLEWLGNIYPGTGGSNFDEKFKNRFTISRDNSKNTLYLQMNSLRAEDTAVYYCTRWTTGTGAYWGQGTTVTVSS VL: EIVLTQSPATLSLSPGERATLSCKSSQSLLDSGNQKNFLTWYQQKPGKAPKLLIYWASTRESGVPSRFSGSGSGTDFTFTISSLQPEDIATYYCQNDYSYPYTFGQGTKVEIKR |
